Reference: paper PMC9324987, “Comparative Analysis of Catabolic and Anabolic Dehydroshikimate Dehydratases for 3,4-DHBA Production in Escherichia coli” (Microorganisms, 2022)

Key:
Qa-4 = biological target: T1, Qa-4 (Neurospora crassa, UniProt P07046); experiment: […],4-DHBA formation at […] nm, product inhibition; type: biochemical
T1 construct: full length, C-terminal His6 (pET22b), codon-optimised synthetic gene, made in E. coli BL21(DE3); primer-encoded N-terminus MPSKLAISS
T1 sequence (P07046 1-359): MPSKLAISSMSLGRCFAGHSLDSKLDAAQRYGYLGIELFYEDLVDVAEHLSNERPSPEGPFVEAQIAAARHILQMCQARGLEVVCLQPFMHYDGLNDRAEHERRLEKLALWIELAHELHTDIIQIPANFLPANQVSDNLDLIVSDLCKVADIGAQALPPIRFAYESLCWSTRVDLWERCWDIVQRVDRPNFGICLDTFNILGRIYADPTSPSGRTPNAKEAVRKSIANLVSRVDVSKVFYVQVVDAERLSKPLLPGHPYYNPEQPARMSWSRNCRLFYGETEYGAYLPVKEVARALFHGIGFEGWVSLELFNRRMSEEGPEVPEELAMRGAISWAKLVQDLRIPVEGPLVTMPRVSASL

QsuB = biological target: T2, QsuB (Corynebacterium glutamicum, UniProt Q8NT86); experiment: […],4-DHBA formation at […] nm, product inhibition; type: biochemical
T2 construct: gene Cgl0422
T2 sequence (Q8NT86 1-618): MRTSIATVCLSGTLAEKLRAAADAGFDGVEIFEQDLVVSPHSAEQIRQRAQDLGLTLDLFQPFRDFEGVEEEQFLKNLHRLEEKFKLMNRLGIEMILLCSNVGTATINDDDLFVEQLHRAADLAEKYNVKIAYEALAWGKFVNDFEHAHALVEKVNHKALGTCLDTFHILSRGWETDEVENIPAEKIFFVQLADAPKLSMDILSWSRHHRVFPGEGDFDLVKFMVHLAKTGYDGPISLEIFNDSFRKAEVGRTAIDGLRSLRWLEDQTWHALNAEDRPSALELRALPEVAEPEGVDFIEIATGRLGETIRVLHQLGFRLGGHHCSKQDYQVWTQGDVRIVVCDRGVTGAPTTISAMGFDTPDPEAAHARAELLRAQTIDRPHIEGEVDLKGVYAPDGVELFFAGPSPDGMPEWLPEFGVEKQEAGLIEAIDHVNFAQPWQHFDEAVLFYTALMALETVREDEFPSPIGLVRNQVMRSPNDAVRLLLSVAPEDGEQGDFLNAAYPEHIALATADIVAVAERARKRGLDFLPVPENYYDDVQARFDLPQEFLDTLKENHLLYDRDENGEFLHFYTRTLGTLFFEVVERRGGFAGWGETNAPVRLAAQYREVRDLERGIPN

AsbF = biological target: T3, AsbF (Bacillus thuringiensis, UniProt A0A1B1L4G3); experiment: […],4-DHBA formation at […] nm, product inhibition; type: biochemical; conditions: 1 mM DHS, 10 mM Mg2+, 0.1 M Tris/HCl pH 7.5, 20 °C, 150 nM enzyme
T3 construct: gene CAB88_09740
T3 sequence (A0A1B1L4G3 1-280): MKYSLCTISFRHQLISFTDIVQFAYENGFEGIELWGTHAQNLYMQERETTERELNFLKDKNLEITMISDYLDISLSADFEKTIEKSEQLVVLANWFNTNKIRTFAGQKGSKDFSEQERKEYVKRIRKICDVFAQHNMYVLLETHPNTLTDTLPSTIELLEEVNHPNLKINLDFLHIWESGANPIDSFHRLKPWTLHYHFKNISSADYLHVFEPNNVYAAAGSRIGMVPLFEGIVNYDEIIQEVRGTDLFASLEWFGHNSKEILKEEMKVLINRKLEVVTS

purified protein [1] = substrate: O=C(O)C1=CC(=O)[C@@H](O)[C@H](O)C1; experiment: purified protein; type: biochemical, Neurospora crassa; conditions: 10 mM Mg2+, 0.1 M Tris/HCl pH 7.5, 20 °C, 0.1-5 mM DHS
purified protein [2] = substrate: O=C(O)C1=CC(=O)[C@@H](O)[C@H](O)C1; experiment: purified protein; type: biochemical, Corynebacterium glutamicum; conditions: 10 mM metal salt (preferred metal, Co2+), 0.1 M Tris/HCl pH 7.5, 20 °C, 0.1-5 mM DHS

Molecule `O=C(O)c1ccc(O)c(O)c1` [3,4-DHBA] has an IC50 (Qa-4) of roughly 640 µM, an IC50 (QsuB) of roughly 350 µM and an IC50 (AsbF) of roughly 80 µM.

B1: Qa-4 (Neurospora crassa OR74A) (protein)
chain: MPSKLAISSMSLGRCFAGHSLDSKLDAAQRYGYLGIELFYEDLVDVAEHLSNERPSPEGPFVEAQIAAARHILQMCQARGLEVVCLQPFMHYDGLNDRAEHERRLEKLALWIELAHELHTDIIQIPANFLPANQVSDNLDLIVSDLCKVADIGAQALPPIRFAYESLCWSTRVDLWERCWDIVQRVDRPNFGICLDTFNILGRIYADPTSPSGRTPNAKEAVRKSIANLVSRVDVSKVFYVQVVDAERLSKPLLPGHPYYNPEQPARMSWSRNCRLFYGETEYGAYLPVKEVARALFHGIGFEGWVSLELFNRRMSEEGPEVPEELAMRGAISWAKLVQDLRIPVEGPLVTMPRVSASL
notes: full length, C-terminal His6 (pET22b), codon-optimised synthetic gene, made in E. coli BL21(DE3); primer-encoded N-terminus MPSKLAISS
B1 showed a Km (purified protein [1]) of 598 ± 16 µM, a kcat (purified protein [1]) of 218.6 ± 1.1 s⁻¹ and a kcat/Km (purified protein [1]) of 366000 ± 68800 M⁻¹ s⁻¹.

B2: QsuB (Corynebacterium glutamicum ATCC 13032) (protein)
chain: MRTSIATVCLSGTLAEKLRAAADAGFDGVEIFEQDLVVSPHSAEQIRQRAQDLGLTLDLFQPFRDFEGVEEEQFLKNLHRLEEKFKLMNRLGIEMILLCSNVGTATINDDDLFVEQLHRAADLAEKYNVKIAYEALAWGKFVNDFEHAHALVEKVNHKALGTCLDTFHILSRGWETDEVENIPAEKIFFVQLADAPKLSMDILSWSRHHRVFPGEGDFDLVKFMVHLAKTGYDGPISLEIFNDSFRKAEVGRTAIDGLRSLRWLEDQTWHALNAEDRPSALELRALPEVAEPEGVDFIEIATGRLGETIRVLHQLGFRLGGHHCSKQDYQVWTQGDVRIVVCDRGVTGAPTTISAMGFDTPDPEAAHARAELLRAQTIDRPHIEGEVDLKGVYAPDGVELFFAGPSPDGMPEWLPEFGVEKQEAGLIEAIDHVNFAQPWQHFDEAVLFYTALMALETVREDEFPSPIGLVRNQVMRSPNDAVRLLLSVAPEDGEQGDFLNAAYPEHIALATADIVAVAERARKRGLDFLPVPENYYDDVQARFDLPQEFLDTLKENHLLYDRDENGEFLHFYTRTLGTLFFEVVERRGGFAGWGETNAPVRLAAQYREVRDLERGIPN
For B2, the Km (purified protein [2]) was 961 ± 77 µM, the kcat (purified protein [2]) was 60.8 ± 0.9 s⁻¹ and the kcat/Km (purified protein [2]) was 63300 ± 11700 M⁻¹ s⁻¹.
